Assay results published in US20130190477A1 (REGENTS OF THE UNIVERSITY OF COLORADO, published 2013).

Tests used:
Human C3d [1] = biological target: T1, Human C3d (human, UniProt P01024 996-1303, limits assumed); test: ITC, 20 °C, 1/3x PBS, two site binding model (weak site)
T1 construct: domain: C3d; also called complement component 3 proteolytic fragment C3d
Description: (§1) ITC experiments were carried out on a Microcal VP-ITC (GE Healthcare, Piscataway, N.J.) housed in the Biophysics Core facility on the UCDSOM campus. […] Data was analyzed using the software provided by the manufacturer (Origin, version 7.0 MicroCal) using either single site or two site binding models (55).

[2] = biological target: T2, EBV gp350, truncated construct comprising residues 1-470 of the wild-type protein, C-terminal polyhistidine … (Epstein-Barr virus, UniProt P03200 1-470); test: NMR titration, upper limit from slow exchange (min. shift difference about 60 Hz, diffusion-limited on rate assumed)
T2 construct: range 1-470; Produced in Sf9 insect cells by baculovirus; The methods say truncated 1-470, yet the results and discussion call the titrated ligand 'full-length'; also called Epstein-Barr virus glycoprotein gp350/220; not shown: C-terminal polyhistidine tag
T2 sequence: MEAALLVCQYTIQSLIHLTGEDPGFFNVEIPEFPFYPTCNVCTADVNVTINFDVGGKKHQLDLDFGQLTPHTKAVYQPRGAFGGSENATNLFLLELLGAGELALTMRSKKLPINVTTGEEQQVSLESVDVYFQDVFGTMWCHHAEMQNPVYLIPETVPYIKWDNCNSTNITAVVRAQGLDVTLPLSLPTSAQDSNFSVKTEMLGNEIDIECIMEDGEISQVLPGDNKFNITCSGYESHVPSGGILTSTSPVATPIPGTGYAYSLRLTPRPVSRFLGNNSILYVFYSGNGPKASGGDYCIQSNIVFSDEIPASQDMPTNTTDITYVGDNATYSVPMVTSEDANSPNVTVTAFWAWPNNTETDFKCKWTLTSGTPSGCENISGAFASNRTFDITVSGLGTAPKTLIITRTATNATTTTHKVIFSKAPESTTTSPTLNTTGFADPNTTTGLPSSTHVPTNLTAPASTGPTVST

Human C3d [3] = biological target: T1, Human C3d; test: ITC, 20 °C, 1/3x PBS, two site binding model (tight site)
Description: as §1

[4] = biological target: T2, EBV gp350, truncated construct …; test: ITC, 20 °C, 1/3x PBS, single site binding model

T1 sequence (P01024 996-1303 limits assumed): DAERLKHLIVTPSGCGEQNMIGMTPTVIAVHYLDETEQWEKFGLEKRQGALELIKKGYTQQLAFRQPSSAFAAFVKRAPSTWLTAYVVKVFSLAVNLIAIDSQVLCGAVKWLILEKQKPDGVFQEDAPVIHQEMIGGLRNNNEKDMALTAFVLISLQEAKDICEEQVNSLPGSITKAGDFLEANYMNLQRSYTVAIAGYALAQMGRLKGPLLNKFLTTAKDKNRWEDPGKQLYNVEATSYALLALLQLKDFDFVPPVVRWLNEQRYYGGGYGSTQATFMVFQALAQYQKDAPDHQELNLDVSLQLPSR

B1: Human CR2 SCR1-2 (short consensus repeat domains 1 and 2 of human complement receptor 2) (receptor)
chain: ISCGSPPPILNGRISYYSTPIAVGTVIRYSCSGTFRLIGEKSLLCITKDKVDGTWDKPAPKCEYFNKYSSCPEPIVPGGYKIRGSTPYRHGDSVTFACKTNFSMNGNKSVWCQANNMWGPTRLPTCVS
notes: The ITC paragraph says only 'CR2 SCR1-2', so it is not clear which preparation gave the ITC values; also called CR2/CD21 SCR1-2; SCR1-2 domains of CR2
Kd (Human C3d [1]): 160000 nM
Kd [2]: ≤ 60000 nM
Kd (Human C3d [3]): 130 nM
Kd [4]: 14 nM
